From patent EP4667489A1 (Kyinno Biotechnology Co., Ltd., dated 2025) come the findings set out here.

Positions count from the first letter of the chain named. Like-named read-outs stand apart in the source and are kept apart here.

The target of experiment [1] is T1, human EGFR expressed on CT26-EGFR cells (human, UniProt P00533 25-1210).
T1 construct: whole, on cells; CT26 cells stably expressing human EGFR (Kyinno KC-1451); also called EGFR-expressing cells; 293T-NFAT-Luc2-EGFR cells
The experiment can be described thus: flow cytometry on CT26-EGFR cells. On the technique in general: A flow cytometer gives signals particle by particle.

In experiment [2] the target is T2, EGFR-mFc (fusion protein of the human EGFR extracellular domain and mouse Fc; Kyinno, Cat No.: KP-1148) (human; mouse, UniProt P00533 25-645).
T2 construct: extracellular domain; bought; also called EGFR-Fc; not shown: mouse Fc
The experiment can be described thus: ELISA, blocking of EGFR-mFc binding to coated EGF-His. (An ELISA detects its analyte on a solid surface through an enzyme-linked reagent.)

The target of experiment [3] is T1, human EGFR expressed on CT26-EGFR cells. The experiment can be described thus: cell-based or functional assay.
In experiment [4] the target is T3, human PDL1 expressed on 293T-PDL1 cells (human, UniProt Q9NZQ7 19-290).
T3 construct: whole, on cells; in the signalling assays PDL1 stood on 293T OS8-hPDL1 cells (Kyinno KC-1148); also called PDL1-expressing cells; 293T OS8-hPDL1 cells
T3 sequence (Q9NZQ7 19-290): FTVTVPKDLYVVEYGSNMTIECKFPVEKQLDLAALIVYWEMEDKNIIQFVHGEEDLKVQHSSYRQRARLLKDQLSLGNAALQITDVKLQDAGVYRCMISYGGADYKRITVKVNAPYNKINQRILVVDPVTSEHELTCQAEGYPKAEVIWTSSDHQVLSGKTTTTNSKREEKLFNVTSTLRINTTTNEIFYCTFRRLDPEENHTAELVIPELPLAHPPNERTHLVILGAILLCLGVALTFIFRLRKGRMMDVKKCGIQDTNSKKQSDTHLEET
The experiment can be described thus: flow cytometry on 293T-PDL1 cells.

Experiment [5] deals with T3, human PDL1 expressed on 293T-PDL1 cells. The experiment is described as follows: cell-based or functional assay.
The target of experiment [6] is T4, PDL1-hFc (Kyinno, Cat No.: KP-1009) (human, UniProt Q9NZQ7 19-238, limits assumed).
T4 construct: bought; not shown: human Fc (hFc)
T4 sequence (Q9NZQ7 19-238 limits assumed): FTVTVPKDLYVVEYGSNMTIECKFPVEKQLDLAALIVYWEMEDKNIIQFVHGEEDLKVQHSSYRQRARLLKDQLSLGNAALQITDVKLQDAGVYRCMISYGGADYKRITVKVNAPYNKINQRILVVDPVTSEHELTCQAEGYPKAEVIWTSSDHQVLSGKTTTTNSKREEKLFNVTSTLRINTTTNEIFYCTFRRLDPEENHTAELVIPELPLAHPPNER
The experiment can be described thus: flow cytometry, blocking of PDL1 Fc fusion (taken as PDL1-hFc) binding to 293T-PD1 cells.

In experiment [7] the target is T5, PDL1-His (Kyinno, Cat No.: KP-1022) (UniProt Q9NZQ7 19-238, limits assumed).
T5 construct: not shown: His tag
T5 sequence (Q9NZQ7 19-238 limits assumed): as above
The experiment can be described thus: BLI (ForteBio Octet), PDL1-His as mobile phase.

Experiment [8] deals with T6, human PD1 expressed on 293T-PD1 cells (human, UniProt Q15116 25-288).
T6 construct: whole, on cells; 293T cells stably expressing human PD1 (Kyinno KC-0204); also called PD1-expressing cells; Jurkat NFAT-PD1-luc cells
T6 sequence (Q15116 25-288): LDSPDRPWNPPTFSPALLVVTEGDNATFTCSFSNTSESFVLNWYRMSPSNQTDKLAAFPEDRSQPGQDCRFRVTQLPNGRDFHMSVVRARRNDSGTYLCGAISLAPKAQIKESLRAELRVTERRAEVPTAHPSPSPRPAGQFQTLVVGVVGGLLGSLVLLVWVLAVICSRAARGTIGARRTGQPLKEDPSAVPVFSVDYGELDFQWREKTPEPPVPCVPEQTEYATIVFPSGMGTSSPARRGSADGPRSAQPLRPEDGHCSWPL
The experiment is described as follows: flow cytometry on 293T-PD1 cells.

For experiment [9], the target named is T7, PD1-hFc (fusion protein of the human PD1 extracellular domain and human IgG1-Fc) (human, UniProt Q15116 25-170).
T7 construct: extracellular domain; also called human PD1-hFc; not shown: human IgG1-Fc, Genbank CAC20454.1
T7 sequence (Q15116 25-170): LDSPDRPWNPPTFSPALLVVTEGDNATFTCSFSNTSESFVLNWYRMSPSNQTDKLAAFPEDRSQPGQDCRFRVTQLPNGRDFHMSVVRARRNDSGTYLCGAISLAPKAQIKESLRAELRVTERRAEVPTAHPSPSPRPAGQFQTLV
The experiment is described as follows: flow cytometry, blocking of PD1-hFc binding to 293T-PDL1 cells.

The target of experiment [10] is T8, human LAG3 expressed on 293T-LAG3 cells (human, UniProt P18627 23-525).
T8 construct: whole, on cells; 293T cells stably expressing human LAG3 (Kyinno KC-0214); also called LAG3-expressing cells
T8 sequence (looked up): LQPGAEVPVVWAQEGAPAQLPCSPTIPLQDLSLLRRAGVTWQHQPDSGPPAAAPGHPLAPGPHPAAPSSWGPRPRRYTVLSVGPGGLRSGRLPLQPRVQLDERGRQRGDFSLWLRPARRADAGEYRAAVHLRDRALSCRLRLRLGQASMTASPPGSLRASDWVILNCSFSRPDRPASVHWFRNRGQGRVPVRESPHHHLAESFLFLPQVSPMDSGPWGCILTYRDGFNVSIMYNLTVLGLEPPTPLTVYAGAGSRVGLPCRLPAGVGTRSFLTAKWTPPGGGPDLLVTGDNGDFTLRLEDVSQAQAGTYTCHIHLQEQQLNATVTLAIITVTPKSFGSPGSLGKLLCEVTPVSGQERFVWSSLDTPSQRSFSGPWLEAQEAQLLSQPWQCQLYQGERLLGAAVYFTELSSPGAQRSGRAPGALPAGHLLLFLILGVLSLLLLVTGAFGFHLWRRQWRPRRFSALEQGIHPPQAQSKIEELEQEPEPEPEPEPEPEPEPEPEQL
The experiment can be described thus: flow cytometry on 293T-LAG3 cells.

Experiment [11] deals with T9, LAG3-hFc (fusion protein of the human LAG3 extracellular domain and human IgG1-Fc) (human, UniProt P18627 23-450).
T9 construct: extracellular domain; not shown: human IgG1-Fc, Genbank CAC20454.1
T9 sequence (looked up): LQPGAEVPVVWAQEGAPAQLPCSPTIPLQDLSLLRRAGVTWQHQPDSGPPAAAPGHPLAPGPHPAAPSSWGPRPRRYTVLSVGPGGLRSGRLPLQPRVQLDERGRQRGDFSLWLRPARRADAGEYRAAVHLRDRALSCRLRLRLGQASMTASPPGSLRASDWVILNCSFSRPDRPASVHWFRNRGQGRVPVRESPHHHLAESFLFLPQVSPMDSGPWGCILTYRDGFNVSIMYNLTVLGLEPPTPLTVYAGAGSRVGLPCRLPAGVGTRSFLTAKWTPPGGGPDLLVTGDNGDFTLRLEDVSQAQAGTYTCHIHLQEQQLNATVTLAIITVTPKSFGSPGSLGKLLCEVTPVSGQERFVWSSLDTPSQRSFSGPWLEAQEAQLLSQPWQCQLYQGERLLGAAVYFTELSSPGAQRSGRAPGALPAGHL
The experiment can be described thus: flow cytometry, blocking of LAG3-hFc binding to Daudi cells.

The target in experiment [12] is T1, human EGFR expressed on CT26-EGFR cells. The experiment can be described thus: flow cytometry on CT26-EGFR cells. This is another data set of the same source.
The target is the same in experiment [13]. The experiment can be described thus: cell-based or functional assay. This is another data set of the same source.
The target in experiment [14] is T10, EGFR-hFc (Kyinno, Cat No.: KP-1149) (UniProt P00533 25-645, limits assumed).
T10 construct: bought; also called EGFR-Fc; not shown: human Fc (hFc)
The experiment is described as follows: ELISA, blocking of EGFR Fc fusion (taken as EGFR-hFc) binding to coated EGF-His.

The target of experiment [15] is T11, EGFR-His (Kyinno, Cat No.: KP-1150) (UniProt P00533 25-645, limits assumed).
T11 construct: bought; not shown: His tag
The experiment is described as follows: BLI (ForteBio Octet), EGFR-His as mobile phase. (BLI is a label-free optical method that tracks binding on a fibre tip over time.)

The target of experiment [16] is T3, human PDL1 expressed on 293T-PDL1 cells. The experiment is described as follows: cell-based or functional assay. The source holds these as a separate data set.
Experiment [17] shares this target. The experiment can be described thus: flow cytometry on 293T-PDL1 cells. This is another data set of the same source.
Experiment [18] concerns the target T12, PDL1-mFc (fusion protein of the human PDL1 extracellular domain and mouse Fc; Kyinno, Cat No.: KP-1008) (human; mouse, UniProt Q9NZQ7 19-238).
T12 construct: extracellular domain; bought; also called human PDL1-mFc; not shown: mouse Fc
The experiment can be described thus: flow cytometry, blocking of PDL1-mFc binding to 293T-PD1 cells.

T12 sequence (Q9NZQ7 19-238): as the sequence (Q9NZQ7 19-238 limits assumed) above

B1: KA-1063 H22A12-2V1-hIgG1 (antibody, V domains shown)
VH: QVQLVQSGAEVKKPGASVKVSCKASGYTFTDYYMNWVRQAPGQGLEWIGDINPNDGGTSYNQKFKGRATLTVDKSTSTAYMELSSLRSEDTAVYYCAREILYYVTSFYFDYWGQGTTVTVSS
VL: DIQITQSPSSLSASVGDRVTITCSATSGVSYMHWYQQKPGKAPKRLIYDTSRLASGVPSRFSGSGSGTDYTLTISSLQPEDFATYYCQQWSSNPPYTFGQGTRLEIKR
notes: anti-EGFR humanized antibody, human IgG1 / kappa
For orientation: EC50 means the concentration giving half of the maximal effect. A low value points to higher potency in that assay. A word on the IC50: it is the point on the concentration scale where inhibition reaches its midpoint. Higher therefore signals weaker potency. Regarding B1, the midpoint of the response in [1], the EC50, lay at 0.0382 µg/mL. Also, in experiment [2], the half-maximal inhibitory concentration (IC50) is 0.0357 µg/mL. Also, the “IC50, luciferase reporter (procedure of Example 34)” value in experiment [3] is 0.389 nM.

B2: anti-PDL1 murine antibody 58E3-2 (hybridoma cell line KD-22-0227 58E3-2) (antibody, V domains shown)
VH: QVQLKESGGGLVKPGGSLKLSCAASGFTFSDYGIHWVRQAPEKGLEWVAFISSGSSTIYYADTVKGRFTISRDNAKNTLFLQMTSLRSEDTAMYYCTRRDFYGSADAMDYWGQGTSVTVSS
VL: QIVLTQSPAIMSASPGEKVTMTCSASSSVSYMHWYQQKSGTSPKRWIYDTSKLASGVPARFSGSGSGTSYSLTISSMEAEDAATYYCQQWSSNPPYTFGSGTKLEIK
notes: murine antibody
One may read the Kd as the equilibrium constant for the complex coming apart. Read a low Kd as tighter binding. As usually defined, the koff is a measure of how fast the partners let go of each other. A lower koff goes with a long-lived complex. The kon is a measure of how fast the partners come together. Higher therefore signals fast association. In turn, B2 showed an EC50 in experiment [4] of 0.245 µg/mL. Besides, in experiment [5], the “IC50, luciferase reporter (Jurkat NFAT-PD1-luc + 293T OS8-hPDL1 cells)” value came out at 1 µg/mL and the “Top (fold increase in activation), luciferase reporter” value worked out at 3.52. Further, the IC50 in [6] turned out to be 0.986 µg/mL. In [7], the Kd stood at 0.431 nM, the koff was 0.000618 s⁻¹ and the kon was 1.43e+06 M⁻¹ s⁻¹.

B3: anti-PD1 murine antibody 107D12-10 (hybridoma cell line KD-22-0054 107D12-10) (antibody, V domains shown)
VH: QVQLKESGGGLVKPGGSLKLSCAASGFTFSDYGMHWVRQAPEKGLEWVAYISSGSYTIYYADTVRDRFTISRDSAKNTLFLQMTSLRSEDTAMYYCVRRGPGYFGSTALDYWGQGTTLTVSS
VL: B2 VL with S26T, S28G, K52R
notes: murine antibody tested as hybridoma culture supernatant
The molecule B3 showed an EC50 in [8] of 0.685 µg/mL. In experiment [9], this molecule came in with an IC50 of 2.26 µg/mL.

B4: anti-LAG3 murine antibody 28G2 (hybridoma cell line KD-0019 28G2-7) (antibody, V domains shown)
VH: DVKLQESGPGLVKPSQSLSLTCSVTGYSFTSGYYWNWIRLFPGNKLEWMGYVSYFGTNNYNPSLKNRFSITRDTSKNQFFLKLNSVSTEDTATYYCARGEEWDWSFDVWGTGTTVTVSS
VL: B2 VL with Q1D, I10F, A59T, S92T, S100G
notes: as for B3
In turn, B4 gave an EC50 in experiment [10] of 1.08 µg/mL. Further, the IC50 in [11] was 1.26 µg/mL.

B5: anti-EGFR murine antibody 22A12-2 (hybridoma cell line KD-22-0198 22A12-2) (antibody, V domains shown)
VH: EVQLQQSGPELVKPGASVKISCKASGYTFTDYYMNWVKQSHGKSLEWIGDINPNDGGTSYNQKFKGKATLTVDKSSSTAYMELRSLTSEDSAVYYCAREILYYVTSFYFDYWGQGTTLTVSS
VL: B2 VL with S26T, S28G, K52R
notes: murine antibody
In experiment [12], B5 came in with an EC50 of 0.0242 µg/mL. In [13], the “IC50, luciferase reporter (293T-NFAT-Luc2-EGFR cells stimulated with EGF-His)” value came to 0.373 µg/mL. The same molecule came in with an IC50 in experiment [14] of 1.58 µg/mL. Further, in experiment [15], binding was put at a Kd of 1.15 nM, the koff came to 0.00111 s⁻¹ and the kon is 965000 M⁻¹ s⁻¹.

B6: KA-2016 H58E3-2V4-2-hIgG1 (antibody, V domains shown)
VH: QVQLVESGGGLVKPGGSLRLSCAASGFTFSDYGIHWIRQAPGKGLEWVAFISSGSSTIYYADAVKGRFTISRDNAKNSLYLQMNSLRAEDTAVYYCTRRDFYGSADAMDYWGQGTTVTVSS
VL: DIQLTQSPSTLSASVGDRVTITCSATSSIGYMHWYQQKPGTSPKRWIYDTSKLASGVPSRFSGSGSGTEYTLTISSLQPDDFATYYCQLWSSDPPYTFGQGTRLEIKR
notes: anti-PDL1 humanized antibody, human IgG1 / kappa
As to B6, the “IC50, luciferase reporter (procedure of Example 25)” value in experiment [16] came to 0.081 nM. In [17], this molecule registered a concentration giving a half-maximal response (EC50) of 0.0419 µg/mL. The molecule also returned an IC50 in experiment [18] of 0.0229 µg/mL.
